For the test, the target named is SARS-CoV-2 S protein, full length (IL1/2020), on 293F-Spike-S2A cells (SARS-CoV-2, USA/IL1/2020 (S identical …, UniProt P0DTC2)). Kind of test: flow cytometry on cells. The note with it: one partner purified.

B1: WRAIR-2123 LALA-PG (human IgG1 with the triple Fc mutation LALA-PG) (antibody, V domains shown)
VH: EVQLVESGGGVVQPGRSLRLSCAASGFTFSSYAMHWVRQAPGKGLEWVAVLSYDGSNKYNADSVKGRFTISRDNSKNTLYLQMNSLRVEDTAMYYCARDGVSVTMVRGVIGPLCDYWGQGTLVTVSS
VL: not shown
Regarding B1, the binding result is “binds”.

B2: WRAIR-2004 LALA-PG (human IgG1 with the triple Fc mutation LALA-PG) (antibody, V domains shown)
VH: QVQLVQSGAEVKKPGASVKVSCKASGYTFTGYYMHWVRQAPGQGLEWMGRINPSSGGTNYAQKFQGRVTMTRDTSISTAYMELSSLRSDDTAVYYCATDGDDGENWFDPWGQGTLVIVSS
VL: DIQMTQSPSSLSASVGDRVTITCRASQGISSWLAWYQQKPEKAPKSLIYAASSLQSGVPSRFSGSGSGTDFTLTISSLQPEDFATYYCQQYNSYPYTFGQGTKLEIK
As for B2, the binding result is “binds”.

B3: WRAIR-2039 LALA-PG (human IgG1 with the triple Fc mutation LALA-PG) (antibody, V domains shown)
VH: QVQLVQSGAEVKKPGASVKVSCKVSGYMLIELSMHWVRQAPGKGLEWMGGFDPEDAETIYAQEFQGRVTMTEDTSTDTAYMELSSLRSEDTAVYYCTTGPAVTNRPADYWGPGTLVTVSS
VL: QSVLTQPPSVSGAPGQRVTISCTGSSSNIGASYDVHWYQQLPGTAPKLLIYANSNRPSGVPDRFSGSKSGTSASLAITGLQAEDEADYYCQSYDSSLSYSVVFGGGTKLTVL
Regarding B3, the binding result is listed as “binds”.

B4: WRAIR-2173 LALA-PG (human IgG1 with the triple Fc mutation LALA-PG) (antibody, V domains shown)
VH: QVQLQESGPGLVKPSETLSLTCSVSGDSISSSDYSWGWIRQPPGKGLEWIGTIYYIKNTYYNPSLRSRVTLSVDTSKNLFSLKLSSVTAADTAVYYCARERPPFDVVVVPAARPYNWFDPWGLGTLVIVSS
VL: QSVLMQPPSVSGAPGQRVTISCTGSSSNIGAGYDVHWYQQLPGTAPKLLIYGNNNRPSGVPDRFSGSKSGTSASLAITGLQADDEADYYCQSYDSSLSGSKVFGGGTKLTVL
With B4, the binding result is on record as “binds”.

B5: WRAIR-2025 LALA-PG (human IgG1 with the triple Fc mutation LALA-PG) (antibody, V domains shown)
VH: QVHLVQSGAEVKKPGASVKVSCKVSGYTLVELSVHWVRQAPAKGLEWIGGFDPEDGETIYAQKFQGRVTMTEDTSTDTAYMELTNLRSEDTAVYYCVTSQPFVSPNWFDPWGQGTLVTVSS
VL: QSALTQPASVSGSPGQSITISCTGTSRDVGAYNYVSWYQQHPGKAPKLMIYEVTTRPSGVSNRFSGSKSGNTASLTISGLQAEDEADYYCSSYTGSRTLVFGTGTKVTVL
In the case of B5, the binding result is listed as “binds”.

The values are drawn from article PMC8642242 (Nature Immunology, 2021).
